# Assay results published in IntAct's records for PubMed 31515488.
# B1: L-fucose dehydrogenase (Homo sapiens), Q9BPX1 (parent)
# chain: MATGTRYAGKVVVVTGGGRGIGAGIVRAFVNSGARVVICDKDESGGRALEQELPGAVFILCDVTQEDDVKTLVSETIRRFGRLDCVVNNAGHHPPPQRPEETSAQGFRQLLELNLLGTYTLTKLALPYLRKSQGNVINISSLVGAIGQAQAVPYVATKGAVTAMTKALALDESPYGVRVNCISPGNIWTPLWEELAALMPDPRATIREGMLAQPLGRMGQPAEVGAAAVFLASEANFCTGIELLVTGGAELGYGCKASRSTPVDAPDIPS
# partner: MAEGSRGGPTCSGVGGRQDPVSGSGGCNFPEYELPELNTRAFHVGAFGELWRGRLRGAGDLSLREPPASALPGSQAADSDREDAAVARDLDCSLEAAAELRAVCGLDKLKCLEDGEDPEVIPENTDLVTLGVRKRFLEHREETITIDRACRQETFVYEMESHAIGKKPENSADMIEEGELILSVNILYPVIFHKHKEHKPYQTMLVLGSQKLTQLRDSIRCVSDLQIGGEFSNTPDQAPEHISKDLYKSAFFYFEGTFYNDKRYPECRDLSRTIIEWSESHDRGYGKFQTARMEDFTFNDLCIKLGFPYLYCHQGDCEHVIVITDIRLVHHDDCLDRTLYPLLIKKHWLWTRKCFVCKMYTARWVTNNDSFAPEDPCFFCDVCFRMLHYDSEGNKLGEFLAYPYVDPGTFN
# B2: Gem-associated protein 7 (Homo sapiens), Q9H840 (parent)
# chain: MQTPVNIPVPVLRLPRGPDGFSRGFAPDGRRAPLRPEVPEIQECPIAQESLESQEQRARAALRERYLRSLLAMVGHQVSFTLHEGVRVAAHFGATDLDVANFYVSQLQTPIGVQAEALLRCSDIISYTFKP
# B3: Signal transducing adapter molecule 1 (Homo sapiens), Q92783 (parent)
# chain: MPLFATNPFDQDVEKATSEMNTAEDWGLILDICDKVGQSRTGPKDCLRSIMRRVNHKDPHVAMQALTLLGACVSNCGKIFHLEVCSRDFASEVSNVLNKGHPKVCEKLKALMVEWTDEFKNDPQLSLISAMIKNLKEQGVTFPAIGSQAAEQAKASPALVAKDPGTVANKKEEEDLAKAIELSLKEQRQQSTTLSTLYPSTSSLLTNHQHEGRKVRAIYDFEAAEDNELTFKAGEIITVLDDSDPNWWKGETHQGIGLFPSNFVTADLTAEPEMIKTEKKTVQFSDDVQVETIEPEPEPAFIDEDKMDQLLQMLQSTDPSDDQPDLPELLHLEAMCHQMGPLIDEKLEDIDRKHSELSELNVKVMEALSLYTKLMNEDPMYSMYAKLQNQPYYMQSSGVSGSQVYAGPPPSGAYLVAGNAQMSHLQSYSLPPEQLSSLSQAVVPPSANPALPSQQTQAAYPNTMVSSVQGNTYPSQAPVYSPPPAATAAAATADVTLYQNAGPNMPQVPNYNLTSSTLPQPGGSQQPPQPQQPYSQKALL
# B4: Protein FAM9B (Homo sapiens), Q8IZU0 (parent)
# chain: MAAWGKKHAGKDPVRDECEERNRFTETREEDVTDEHGEREPFAETDEHTGANTKKPEDTAEDLTAKRKRMKMDKTCSKTKNKSKHALRKKQLKRQKRDYIHSLKLLNVLEEYITDEQKEEEEEEGEEEELIRIFQEQQKKWQQYRSVRRERLKEMKLLRDQFVKALEDFEDLCDRVFSDEDSELDN
# partner: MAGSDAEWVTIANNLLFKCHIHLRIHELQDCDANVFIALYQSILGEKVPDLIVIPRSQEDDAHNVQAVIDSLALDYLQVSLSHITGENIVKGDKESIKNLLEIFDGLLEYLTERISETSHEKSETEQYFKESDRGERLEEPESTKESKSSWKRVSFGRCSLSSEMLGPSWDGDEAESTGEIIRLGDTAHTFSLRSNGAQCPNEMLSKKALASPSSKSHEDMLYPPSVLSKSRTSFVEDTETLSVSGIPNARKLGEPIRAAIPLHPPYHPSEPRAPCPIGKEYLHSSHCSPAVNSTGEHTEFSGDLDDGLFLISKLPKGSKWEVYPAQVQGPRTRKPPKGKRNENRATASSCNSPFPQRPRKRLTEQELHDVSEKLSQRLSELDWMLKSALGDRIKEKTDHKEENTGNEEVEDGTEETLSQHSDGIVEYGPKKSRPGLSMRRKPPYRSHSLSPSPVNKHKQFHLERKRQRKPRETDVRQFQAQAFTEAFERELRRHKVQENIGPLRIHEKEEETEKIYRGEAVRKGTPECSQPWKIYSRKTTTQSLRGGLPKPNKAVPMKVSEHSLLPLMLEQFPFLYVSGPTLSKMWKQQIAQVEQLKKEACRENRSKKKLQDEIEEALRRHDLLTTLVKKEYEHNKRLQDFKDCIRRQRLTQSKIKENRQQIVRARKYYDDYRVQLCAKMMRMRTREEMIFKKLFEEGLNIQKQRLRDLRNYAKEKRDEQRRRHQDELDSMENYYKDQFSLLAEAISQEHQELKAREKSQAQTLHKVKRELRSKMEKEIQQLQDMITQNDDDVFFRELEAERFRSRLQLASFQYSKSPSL
# B5: Hypoxia-inducible factor 1-alpha inhibitor (Homo sapiens), Q9NWT6 (parent)
# chain: MAATAAEAVASGSGEPREEAGALGPAWDESQLRSYSFPTRPIPRLSQSDPRAEELIENEEPVVLTDTNLVYPALKWDLEYLQENIGNGDFSVYSASTHKFLYYDEKKMANFQNFKPRSNREEMKFHEFVEKLQDIQQRGGEERLYLQQTLNDTVGRKIVMDFLGFNWNWINKQQGKRGWGQLTSNLLLIGMEGNVTPAHYDEQQNFFAQIKGYKRCILFPPDQFECLYPYPVHHPCDRQSQVDFDNPDYERFPNFQNVVGYETVVGPGDVLYIPMYWWHHIESLLNGGITITVNFWYKGAPTPKRIEYPLKAHQKVAIMRNIEKMLGEALGNPQEVGPLLNTMIKGRYN
# partner: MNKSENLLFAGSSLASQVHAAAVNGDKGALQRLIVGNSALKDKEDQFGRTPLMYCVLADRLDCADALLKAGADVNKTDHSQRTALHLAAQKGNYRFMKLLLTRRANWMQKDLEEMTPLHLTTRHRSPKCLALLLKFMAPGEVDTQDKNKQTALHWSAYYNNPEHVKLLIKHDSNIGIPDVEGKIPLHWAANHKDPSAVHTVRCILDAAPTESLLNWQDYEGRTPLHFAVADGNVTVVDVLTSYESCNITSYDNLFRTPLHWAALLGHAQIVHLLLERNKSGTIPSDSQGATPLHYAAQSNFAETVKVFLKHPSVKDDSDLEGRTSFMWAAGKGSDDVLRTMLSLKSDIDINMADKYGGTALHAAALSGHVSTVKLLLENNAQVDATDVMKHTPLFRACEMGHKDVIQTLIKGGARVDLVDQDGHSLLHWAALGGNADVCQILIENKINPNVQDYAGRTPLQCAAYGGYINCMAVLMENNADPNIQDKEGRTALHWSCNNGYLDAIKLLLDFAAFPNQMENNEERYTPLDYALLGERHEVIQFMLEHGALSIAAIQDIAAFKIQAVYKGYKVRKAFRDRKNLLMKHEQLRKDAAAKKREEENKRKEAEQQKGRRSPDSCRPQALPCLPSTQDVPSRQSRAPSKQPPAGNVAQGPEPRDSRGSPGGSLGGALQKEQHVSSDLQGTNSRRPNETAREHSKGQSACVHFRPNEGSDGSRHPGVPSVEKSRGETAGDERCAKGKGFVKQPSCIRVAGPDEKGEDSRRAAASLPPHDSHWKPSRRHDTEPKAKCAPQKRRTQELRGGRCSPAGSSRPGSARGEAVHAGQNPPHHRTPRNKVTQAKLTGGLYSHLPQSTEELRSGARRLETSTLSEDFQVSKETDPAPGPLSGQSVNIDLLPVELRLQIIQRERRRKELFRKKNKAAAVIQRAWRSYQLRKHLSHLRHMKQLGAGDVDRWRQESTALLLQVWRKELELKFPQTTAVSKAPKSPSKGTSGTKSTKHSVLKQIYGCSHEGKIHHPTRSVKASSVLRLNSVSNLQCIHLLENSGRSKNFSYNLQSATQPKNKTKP
# Variants of: B1
# Conditions: with snpc3_human SNAPC3, Q92966
row,effect of a mutation on the interaction,Variant
1,disrupting interaction strength,R130W
2,with no effect,N31D
3,with no effect,A56T
4,disrupting interaction strength,G16W

# Variants of: B2
# Conditions: with gemi6_human GEMIN6, Q8WXD5
# Sequence of gemi6_human GEMIN6, Q8WXD5 (Q8WXD5 whole entry): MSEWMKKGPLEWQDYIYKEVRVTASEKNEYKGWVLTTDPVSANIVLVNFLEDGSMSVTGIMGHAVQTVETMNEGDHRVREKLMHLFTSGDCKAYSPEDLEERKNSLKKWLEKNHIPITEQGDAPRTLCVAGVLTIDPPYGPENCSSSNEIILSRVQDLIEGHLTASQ
row,effect of a mutation on the interaction,Variant
1,with no effect,R68C

# Variants of: B3
# Conditions: with hgs_human HGS
row,effect of a mutation on the interaction,Variant
1,with no effect,I350T
2,with no effect,A367T
3,with no effect,V61I
4,with no effect,I343T

# Variants of: B4
# Conditions: with cep95_human CEP95, Q96GE4
row,effect of a mutation on the interaction,Variant
1,with no effect,R23H

# Variants of: B5
# Conditions: with invs_human INVS
row,effect of a mutation on the interaction,Variant
1,with no effect,P41A
